Results reported in patent publication US9326950B2, “Self-assembling nanoparticles composed of transmembrane peptides and their application for specific intra-tumor delivery of anti-cancer drugs” (The United States of America, as represented by the …, priority 2006, dated 2016).
Where no end group is shown, it is not given here.

Tests used:
[1] = Multi-angle light scattering, molecular weight of peptide aggregates and degree of aggregation; format: physicochemical; settings: for MW (g/mol): 0.1 M Tris-HCl pH 7.2
Experimental: To determine the influence of hydrophilic tail length on nanoparticle aggregation, the degree of aggregation was determined by multi-angle light scattering for TM peptides with the amino acid sequences of SEQ ID NO: 1; SEQ ID NO: 1-PEG11; SEQ ID NO: 1-PEG27; SEQ ID NO: 1-PEG38; and SEQ ID NO: 1-GGGGG.
The peptides were dissolved in DMSO and diluted with 0.1 M Tris-HCl buffer (pH 7.2) to provide 0.4 mg/ml peptide solutions. This was used for further dilutions. The final concentration of DMSO was either 2.5% or 1.25% (kept constant for all dilutions in the series). The samples were sonicated at maximum intensity for 10 minutes and left at room temperature overnight (about 20 hours before measurements). The following day, the samples were centrifuged at 13200 rpm for 30 minutes.
Light scattering (LS) studies were performed by a DAWN EOS multi-angle detector (Wyatt Technology Corp., Santa Barbara, Calif.) at a laser wavelength of 690 nm. The LS detector was connected with an Agilent 1100 HPLC system (Agilent Technologies, Palo Alto, Calif.). The MALS detector was calibrated with HPLC grade toluene, 99.8% (Aldrich Chemicals, Milwaukee, Wis.), which was filtered through a […] Anotop-25 inorganic membrane filter and then normalized with albumin (bovine) 98% monomer (Sigma Chemicals, St. Louis, Mo.). The data were collected and processed using Astra software (Wyatt Technology Corp.; version 4.90.04).
To determine the molecular weight of the peptide aggregates and the aggregation state, LS micro-batch measurements were performed. In brief, solvent was delivered through the HPLC system, bypassing the column compartment, at a flow rate of 0.05 ml/min. 900 μl samples with different peptide concentrations were injected through the HPLC autosampler. Four peptide concentrations were analyzed (i.e., 0.05 mg/ml, 0.1 mg/ml, 0.2 mg/ml, and 0.4 mg/ml). The concentrations were determined from weight measurements, since strong light scattering made traditional UV-absorbance determination inaccurate. The LS signal was collected for each concentration. Molecular weight was determined for each concentration separately using Astra software with a Debye plot and the Zimm equation. A single slice of collected signal giving the smallest error was chosen for molecular weight calculation at each concentration.

[2] = WMC77 fluorescence emission with increasing amounts of nanoparticles; format: physicochemical; settings: increasing amounts of the nanoparticles
Experimental: FIG. 1 is a graph of fluorescence emission intensity (a.u.) versus concentration (mg/ml) of nanoparticles comprising SEQ ID NO: 1-PEG11 (represented by circles) or SEQ ID NO: 1-PEG38 (represented by open squares).
FIG. 2 is a graph of wavelength maximum (nm) versus concentration (μM) of nanoparticles comprising SEQ ID NO: 1-PEG11 (represented by circles) or SEQ ID NO: 1-PEG38 (represented by open squares).
Various amounts of nanoparticles (SEQ ID NO:1-PEG11 or SEQ ID NO 1-PEG38) were added to solutions of WMC77. The fluorescence emission intensity and shift in emission maxima were measured with the results depicted in FIGS. 1 and 2.

[3] = Fluorescence energy transfer between WMC77 and Alexa 546-labeled nanoparticles; format: physicochemical; settings: WMC77 final concentration 300 nM
[4] = Transmission electron microscopy of peptide nanoparticles; format: physicochemical; settings: negative charges replaced by positive charges
Experimental: Peptides were solubilized in DMSO to yield 32 mg/ml solution. DMSO stocks were diluted with phosphate buffered saline (PBS) to produce 0.05-0.5 mg/ml solutions. Two μl of a sample were applied directly on microscopy grids, air-dried, stained with 0.5% (w/v) osmium tetroxide (OsO4), and visualized with a Hitachi H-7000 electron microscope.

[5] = tested on: MDA-MB-231 breast cancer cells; experiment: Survival in mouse model of breast cancer lung metastasis; format: in vivo, nude mice
Experimental: FIG. 3 is a graph of percent survival (%) versus days on treatment for three groups of nude mice intravenously injected with one million MDA-MB-231 breast cancer cells. On the day following the intravenous injection with the breast cancer cells and continuing twice weekly, the mice were intraperitoneally injected with (1) PBS only (Control); (2) 3 mg/kg of nanoparticles of SEQ ID NO: 1-PEG27 dissolved in PBS (X4-4-6, 3 mg/kg); or (3) 12 mg/kg of nanoparticles of SEQ ID NO: 1-PEG27 dissolved in PBS (X4-4-6, 12 mg/kg).
One million MDA-MB-231 breast cancer cells were injected in nude mice intraveneously on Day 0. On Day 1 and continuing twice weekly, mice were intraperitoneally injected with (1) 3 mg/kg of nanoparticles of the TM peptide of SEQ ID NO: 1-PEG27 dissolved in PBS; (2) 12 mg/kg of nanoparticles of the TM peptide of SEQ ID NO: 1-PEG27 dissolved in PBS; or (3) a control (PBS only).

[6] = tested on: MDA-231 breast cancer cells; settings: mouse, in vivo
Experimental: A CXCR4-TM domain 2-derived pegylated peptide labeled with Alexa546 fluorescent dye was prepared. […] Ten μl of peptide were diluted with 630 μl PBS (to produce 2 mg/ml peptide solution), sonicated for 10 minutes, and used for intratumoral injection.
Nude mice were inoculated in a breast pad with one million MDA-231 breast cancer cells. Six weeks later, when tumor sizes reached about 5 mm in diameter, 0.1 ml of 2 mg/ml solution of the fluorescent nanoparticles in PBS were injected into a breast pad near the tumor.
Whole animals and excised tumors were imaged utilizing the Maestro 420 In-Vivo Spectral Imaging System (Cambridge Resources and Instrumentation, Inc.).

[7] = aggregate MW at 0.1 mg/ml peptide
[8] = aggregate MW at 0.2 mg/ml peptide
[9] = aggregate MW at 0.4 mg/ml peptide
[10] = aggregate MW at 0.05 mg/ml peptide
[11] = 3 mg/kg intraperitoneally twice weekly
[12] = 12 mg/kg intraperitoneally twice weekly

Row | Compound | N, degree of aggregation (molecules per particle) ([1]; 0.1 mg/ml peptide) | N, degree of aggregation (molecules per particle) ([1]; 0.2 mg/ml peptide) | N, degree of aggregation (molecules per particle) ([1]; 0.4 mg/ml peptide) | MW (g/mol) [1, 7] | MW (g/mol) [1, 8] | MW (g/mol) [1, 9] | N, degree of aggregation (molecules per particle) ([1]; 0.05 mg/ml peptide) | MW (g/mol) [1, 10] | other results
1 | SEQ ID NO: 8-PEG27: deletion mutant lacking the five N-terminal amino acid residues of SEQ ID NO: 1, with PEG27 (TLPFWAVDAVANWYFGNDD; not fully specified; also: PEG27 added) | 9 | 10 | 10 | 29,550 ± 4,630 g/mol | 32,660 ± 6,730 g/mol | 34,520 ± 7,850 g/mol | – | – | –
2 | LLFVITLPFWAVDAVANWYFGNDD [SEQ ID NO: 1] | 2478 | 2494 | – | 6,906,000 ± 22,000 g/mol | 6,952,000 ± 22,000 g/mol | – | 4090 | 11,400,000 ± 40,000 g/mol | –
3 | SEQ ID NO: 1-PEG38: TM peptide of SEQ ID NO: 1 with PEG38, obtained by sequential coupling of PEG11 and PEG27 (LLFVITLPFWAVDAVANWYFGNDD; also: PEG38 added (PEG11 + PEG27)) | 93 | 19 | 24 | 436,100 ± 20,300 g/mol | 90,950 ± 9,210 g/mol | 110,500 ± 5,600 g/mol | – | – | emission maxima of WMC77 [2]: a shift in emission maxima; fluorescence emission intensity of WMC77 [2]: an increase in fluorescence emission intensity
4 | NCCCN1CCN(CCCNc2ccc3ncn4c5ccccc5c(=O)c2c34)CC1 [WMC77, 5-{3-[4-(aminopropyl)-piperazin-1-yl]-propylamino}-2,10b-diaza-aceanthrylen-6-one, reference compound] | – | – | – | – | – | – | – | – | Fluorescence Intensity (a.u.) of WMC77 solutions ([3]; No TM peptide): 622 a.u.
5 | LLFVITLPFWAVDAVANWYFGNKK [SEQ ID NO: 6] | – | – | – | – | – | – | – | – | particle size and uniformity [4]: much large particles with highly variable diameters
6 | SEQ ID NO: 1-PEG11: TM peptide of SEQ ID NO: 1 with hydrophilic oligomer PEG11 added (LLFVITLPFWAVDAVANWYFGNDD; not fully specified; also: PEG11 added) | 316 | 137 | 54 | 1,069,000 ± 20,000 g/mol | 463,800 ± 6,800 g/mol | 183,200 ± 900 g/mol | 743 | 2,515,000 ± 69,000 g/mol | emission maxima of WMC77 [2]: a shift in emission maxima; fluorescence emission intensity of WMC77 [2]: an increase in fluorescence emission intensity
7 | SEQ ID NO: 1-GGGGG: TM peptide of SEQ ID NO: 1 with polyglycine tail GGGGG (LLFVITLPFWAVDAVANWYFGNDD; C-terminal GGGGG tail) | 664 | 282 | 55 | 2,041,000 ± 4,000 g/mol | 865,600 ± 2,700 g/mol | 169,700 ± 300 g/mol | 1614 | 4,957,000 ± 8,000 g/mol | –
8 | SEQ ID NO: 1-PEG27: TM peptide of SEQ ID NO: 1 with hydrophilic oligomer PEG27 added; CXCR4 peptide nanoparticles (LLFVITLPFWAVDAVANWYFGNDD; not fully specified; also: PEG27 added) | 176 | 167 | 90 | 719,400 ± 100,700 g/mol | 682,000 ± 105,000 g/mol | 367,100 ± 38,400 g/mol | 286 | 1,171,000 ± 190,000 g/mol | survival by Day 75 [5, 11]: about 40%; survival by Day 91 [5, 11]: no surviving animals; body weight [5, 12]: continued to gain weight; survival by Day 75 [5, 12]: 100%; survival until the end of the experiment (Day 140) [5, 12]: a significant number of the animals administered 12 mg/kg of nanoparticles survived
9 | TM peptide-Alexa conjugate: CXCR4-TM domain 2-derived pegylated peptide SEQ ID NO: 1-Peg11-Hcy-Peg27 labeled with Alexa546 fluorescent dye (LLFVITLPFWAVDAVANWYFGNDD; also: Peg11-Hcy-Peg27 attached, Alexa546 label) | – | – | – | – | – | – | – | – | Fluorescence Intensity (a.u.) of WMC77 solutions ([3]; with additive): 295 a.u.; penetration of tumor vasculature [6]: effectively penetrate tumor vasculature
